These results are taken from IntAct's records for PubMed 31515488.

B1: Cyclin-D1-binding protein 1 (Homo sapiens), O95273 (parent)
chain: MASATAPAAAVPTLASPLEQLRHLAEELRLLLPRVRVGEAQETTEEFNREMFWRRLNEAAVTVSREATTLTIVFSQLPLPSPQETQKFCEQVHAAIKAFIAVYYLLPKDQGITLRKLVRGATLDIVDGMAQLMEVLSVTPTQSPENNDLISYNSVWVACQQMPQIPRDNKAAALLMLTKNVDFVKDAHEEMEQAVEECDPYSGLLNDTEENNSDNHNHEDDVLGFPSNQDLYWSEDDQELIIPCLALVRASKACLKKIRMLVAENGKKDQVAQLDDIVDISDEISPSVDDLALSIYPPMCHLTVRINSAKLVSVLKKALEITKASHVTPQPEDSWIPLLINAIDHCMNRIKELTQSELEL
B2: 60 kDa heat shock protein, mitochondrial (Homo sapiens), P10809 (parent)
chain: MLRLPTVFRQMRPVSRVLAPHLTRAYAKDVKFGADARALMLQGVDLLADAVAVTMGPKGRTVIIEQSWGSPKVTKDGVTVAKSIDLKDKYKNIGAKLVQDVANNTNEEAGDGTTTATVLARSIAKEGFEKISKGANPVEIRRGVMLAVDAVIAELKKQSKPVTTPEEIAQVATISANGDKEIGNIISDAMKKVGRKGVITVKDGKTLNDELEIIEGMKFDRGYISPYFINTSKGQKCEFQDAYVLLSEKKISSIQSIVPALEIANAHRKPLVIIAEDVDGEALSTLVLNRLKVGLQVVAVKAPGFGDNRKNQLKDMAIATGGAVFGEEGLTLNLEDVQPHDLGKVGEVIVTKDDAMLLKGKGDKAQIEKRIQEIIEQLDVTTSEYEKEKLNERLAKLSDGVAVLKVGGTSDVEVNEKKDRVTDALNATRAAVEEGIVLGGGCALLRCIPALDSLTPANEDQKIGIEIIKRTLKIPAMTIAKNAGVEGSLIVEKIMQSSSEVGYDAMAGDFVNMVEKGIIDPTKVVRTALLDAAGVASLLTTAEVVVTEIPKEEKDPGMGAMGGMGGGMGGGMF
partner: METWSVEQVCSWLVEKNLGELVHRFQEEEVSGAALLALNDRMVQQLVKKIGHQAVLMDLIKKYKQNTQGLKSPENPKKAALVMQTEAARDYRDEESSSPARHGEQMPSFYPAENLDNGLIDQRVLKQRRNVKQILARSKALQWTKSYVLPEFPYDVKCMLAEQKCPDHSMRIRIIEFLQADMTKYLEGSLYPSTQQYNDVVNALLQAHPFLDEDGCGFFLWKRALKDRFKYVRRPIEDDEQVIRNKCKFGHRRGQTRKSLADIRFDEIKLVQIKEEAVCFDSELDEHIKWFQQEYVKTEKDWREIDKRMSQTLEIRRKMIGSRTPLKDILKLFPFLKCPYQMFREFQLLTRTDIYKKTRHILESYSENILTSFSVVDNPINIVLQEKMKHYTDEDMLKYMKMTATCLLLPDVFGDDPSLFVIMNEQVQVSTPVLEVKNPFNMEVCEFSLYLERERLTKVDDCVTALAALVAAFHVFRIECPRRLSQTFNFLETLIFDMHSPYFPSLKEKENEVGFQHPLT
B3: "Bile acid-CoA:amino acid N-acyltransferase" (Homo sapiens), Q14032 (parent)
chain: MIQLTATPVSALVDEPVHIRATGLIPFQMVSFQASLEDENGDMFYSQAHYRANEFGEVDLNHASSLGGDYMGVHPMGLFWSLKPEKLLTRLLKRDVMNRPFQVQVKLYDLELIVNNKVASAPKASLTLERWYVAPGVTRIKVREGRLRGALFLPPGEGLFPGVIDLFGGLGGLLEFRASLLASRGFASLALAYHNYEDLPRKPEVTDLEYFEEAANFLLRHPKVFGSGVGVVSVCQGVQIGLSMAIYLKQVTATVLINGTNFPFGIPQVYHGQIHQPLPHSAQLISTNALGLLELYRTFETTQVGASQYLFPIEEAQGQFLFIVGEGDKTINSKAHAEQAIGQLKRHGKNNWTLLSYPGAGHLIEPPYSPLCCASTTHDLRLHWGGEVIPHAAAQEHAWKEIQRFLRKHLIPDVTSQL
B4: Inhibitor of nuclear factor kappa-B kinase-interacting protein (Homo sapiens), Q70UQ0-4 (parent)
chain: MSEVKSRKKSGPKGAPAAEPGKRSEGGKTPVARSSGGGGWADPRTCLSLLSLGTCLGLAWFVFQQSEKFAKVENQYQLLKLETNEFQQLQSKISLISEKLESTESILQEATSSMSLMTQFEQEVSNLQDIMHDIQNNEEVLTQRMQSLNEKFQNITDFWKRSLEEMNINTDIFKSEAKHIHSQVTVQINSAEQEIKLLTERLKDLEDSTLRNIRTVKRQEEEDLLRVEEQLGSDTKAIEKLEEEQHALFARDEDLTNKLSDYEPKVEECKTHLPTIESAIHSVLRVSQDLIETEKKMEDLTMQMFNMEDDMLKAVSEIMEMQKTLEGIQYDNSILKMQNELDILKEKVHDFIAYSSTGEKGTLKEYNIENKGIGGDF
partner: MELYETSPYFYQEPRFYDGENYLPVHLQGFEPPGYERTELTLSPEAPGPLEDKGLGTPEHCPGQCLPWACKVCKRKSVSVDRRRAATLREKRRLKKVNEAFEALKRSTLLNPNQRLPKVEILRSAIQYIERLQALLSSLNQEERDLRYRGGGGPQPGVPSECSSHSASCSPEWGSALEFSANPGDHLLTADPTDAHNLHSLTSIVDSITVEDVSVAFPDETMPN
B5: Peroxisomal bifunctional enzyme (Homo sapiens), Q08426 (parent)
chain: MAEYTRLHNALALIRLRNPPVNAISTTLLRDIKEGLQKAVIDHTIKAIVICGAEGKFSAGADIRGFSAPRTFGLTLGHVVDEIQRNEKPVVAAIQGMAFGGGLELALGCHYRIAHAEAQVGLPEVTLGLLPGARGTQLLPRLTGVPAALDLITSGRRILADEALKLGILDKVVNSDPVEEAIRFAQRVSDQPLESRRLCNKPIQSLPNMDSIFSEALLKMRRQHPGCLAQEACVRAVQAAVQYPYEVGIKKEEELFLYLLQSGQARALQYAFFAERKANKWSTPSGASWKTASARPVSSVGVVGLGTMGRGIVISFARARIPVIAVDSDKNQLATANKMITSVLEKEASKMQQSGHPWSGPKPRLTSSVKELGGVDLVIEAVFEEMSLKKQVFAELSAVCKPEAFLCTNTSALDVDEIASSTDRPHLVIGTHFFSPAHVMKLLEVIPSQYSSPTTIATVMNLSKKIKKIGVVVGNCFGFVGNRMLNPYYNQAYFLLEEGSKPEEVDQVLEEFGFKMGPFRVSDLAGLDVGWKSRKGQGLTGPTLLPGTPARKRGNRRYCPIPDVLCELGRFGQKTGKGWYQYDKPLGRIHKPDPWLSKFLSRYRKTHHIEPRTISQDEILERCLYSLINEAFRILGEGIAASPEHIDVVYLHGYGWPRHKGGPMFYASTVGLPTVLEKLQKYYRQNPDIPQLEPSDYLKKLASQGNPPLKEWQSLAGSPSSKL
partner: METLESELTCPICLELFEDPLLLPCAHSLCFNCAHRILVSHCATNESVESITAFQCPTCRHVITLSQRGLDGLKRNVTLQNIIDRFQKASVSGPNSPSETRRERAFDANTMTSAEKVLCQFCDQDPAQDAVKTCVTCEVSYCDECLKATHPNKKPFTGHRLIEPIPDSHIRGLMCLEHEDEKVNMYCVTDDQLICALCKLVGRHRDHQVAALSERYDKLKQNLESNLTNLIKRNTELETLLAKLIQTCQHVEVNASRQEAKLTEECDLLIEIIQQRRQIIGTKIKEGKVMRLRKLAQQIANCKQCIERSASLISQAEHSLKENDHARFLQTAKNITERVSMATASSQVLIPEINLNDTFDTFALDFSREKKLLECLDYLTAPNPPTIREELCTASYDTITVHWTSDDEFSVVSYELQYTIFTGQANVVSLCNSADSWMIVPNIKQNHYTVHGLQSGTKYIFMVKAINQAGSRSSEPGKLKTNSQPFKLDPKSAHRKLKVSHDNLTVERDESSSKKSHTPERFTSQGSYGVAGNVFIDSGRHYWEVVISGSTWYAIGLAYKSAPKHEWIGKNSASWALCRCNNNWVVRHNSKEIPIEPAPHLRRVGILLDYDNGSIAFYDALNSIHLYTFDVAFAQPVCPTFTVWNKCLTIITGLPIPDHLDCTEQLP

The variants in the first experiment derive from B1. Particulars: with ezh1_human EZH1, Q92800.
Chain of ezh1_human EZH1, Q92800 (Q92800 whole entry): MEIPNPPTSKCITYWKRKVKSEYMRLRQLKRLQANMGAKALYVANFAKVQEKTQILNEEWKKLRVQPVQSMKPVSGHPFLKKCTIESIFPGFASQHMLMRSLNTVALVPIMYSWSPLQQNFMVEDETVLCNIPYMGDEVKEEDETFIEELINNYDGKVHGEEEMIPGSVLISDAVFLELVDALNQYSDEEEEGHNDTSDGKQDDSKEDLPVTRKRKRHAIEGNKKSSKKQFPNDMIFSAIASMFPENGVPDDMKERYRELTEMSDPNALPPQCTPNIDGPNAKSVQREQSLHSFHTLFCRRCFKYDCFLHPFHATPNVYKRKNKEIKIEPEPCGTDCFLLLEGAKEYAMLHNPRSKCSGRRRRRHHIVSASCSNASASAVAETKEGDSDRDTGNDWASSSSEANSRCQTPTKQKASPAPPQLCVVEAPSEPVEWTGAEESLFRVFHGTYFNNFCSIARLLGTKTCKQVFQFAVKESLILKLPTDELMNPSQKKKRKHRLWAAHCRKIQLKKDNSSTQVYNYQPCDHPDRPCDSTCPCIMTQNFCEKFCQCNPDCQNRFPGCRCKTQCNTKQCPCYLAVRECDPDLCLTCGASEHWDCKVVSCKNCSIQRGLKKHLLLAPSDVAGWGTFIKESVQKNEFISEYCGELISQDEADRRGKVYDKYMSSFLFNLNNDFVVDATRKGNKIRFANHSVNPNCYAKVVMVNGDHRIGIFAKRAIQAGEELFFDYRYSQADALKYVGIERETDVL
I277T: the “effect of a mutation on the interaction” value is recorded as “disrupting interaction strength”.

Another experiment covers variants of B1. Particulars: with pex39_human PEX39, Q5I0X4.
Chain of pex39_human PEX39, Q5I0X4 (Q5I0X4 whole entry): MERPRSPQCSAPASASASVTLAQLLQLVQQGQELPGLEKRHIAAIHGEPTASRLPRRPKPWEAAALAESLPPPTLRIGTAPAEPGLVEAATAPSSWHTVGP
For I277T, the “effect of a mutation on the interaction” value was “disrupting interaction strength”.

The variants in another experiment derive from B1. Particulars: with evg1_human C22orf23, Q9BZE7.
Chain of evg1_human C22orf23, Q9BZE7 (Q9BZE7 whole entry): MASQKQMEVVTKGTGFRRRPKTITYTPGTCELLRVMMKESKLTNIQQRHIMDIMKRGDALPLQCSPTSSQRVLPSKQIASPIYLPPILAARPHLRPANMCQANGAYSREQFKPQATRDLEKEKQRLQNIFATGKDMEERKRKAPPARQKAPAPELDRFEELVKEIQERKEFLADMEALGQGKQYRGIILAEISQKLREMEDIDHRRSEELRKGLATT
Turning to I277T, the “effect of a mutation on the interaction” value is reported as “disrupting interaction strength”.

The next experiment covers variants of B1. Particulars: with map7_human MAP7, Q14244.
Chain of map7_human MAP7, Q14244 (Q14244 whole entry): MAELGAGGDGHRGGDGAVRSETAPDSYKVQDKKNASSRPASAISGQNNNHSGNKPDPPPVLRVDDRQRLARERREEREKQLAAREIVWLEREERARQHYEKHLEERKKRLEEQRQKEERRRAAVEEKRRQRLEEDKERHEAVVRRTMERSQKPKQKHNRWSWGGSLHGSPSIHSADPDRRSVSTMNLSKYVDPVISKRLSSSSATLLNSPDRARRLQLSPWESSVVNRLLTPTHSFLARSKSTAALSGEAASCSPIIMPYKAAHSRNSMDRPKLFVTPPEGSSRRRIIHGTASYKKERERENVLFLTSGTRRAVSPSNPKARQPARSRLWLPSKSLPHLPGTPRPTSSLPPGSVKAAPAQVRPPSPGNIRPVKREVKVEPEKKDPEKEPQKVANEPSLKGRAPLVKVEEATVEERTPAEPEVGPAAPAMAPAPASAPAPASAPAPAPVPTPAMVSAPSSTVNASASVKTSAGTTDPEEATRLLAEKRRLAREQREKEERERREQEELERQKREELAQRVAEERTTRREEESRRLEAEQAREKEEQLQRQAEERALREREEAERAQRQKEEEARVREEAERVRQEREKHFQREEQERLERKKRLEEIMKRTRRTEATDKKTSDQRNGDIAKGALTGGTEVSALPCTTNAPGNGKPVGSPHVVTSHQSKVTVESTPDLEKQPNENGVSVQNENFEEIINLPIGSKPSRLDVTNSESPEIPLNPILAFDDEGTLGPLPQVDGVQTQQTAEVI
As to I277T, the “effect of a mutation on the interaction” value is reported as “disrupting interaction strength”.

In the next experiment the parent is B1. Particulars: with myp2_human PMP2, P02689.
For the variant I277T, the “effect of a mutation on the interaction” value was “disrupting interaction strength”.

The variants in the next experiment derive from B1. Particulars: with rl39l_human RPL39L.
For the variant I277T, the “effect of a mutation on the interaction” value is recorded as “disrupting interaction strength”.

Another experiment covers variants of B1. Particulars: with zn707_human ZNF707, Q96C28.
Chain of zn707_human ZNF707, Q96C28 (Q96C28 whole entry): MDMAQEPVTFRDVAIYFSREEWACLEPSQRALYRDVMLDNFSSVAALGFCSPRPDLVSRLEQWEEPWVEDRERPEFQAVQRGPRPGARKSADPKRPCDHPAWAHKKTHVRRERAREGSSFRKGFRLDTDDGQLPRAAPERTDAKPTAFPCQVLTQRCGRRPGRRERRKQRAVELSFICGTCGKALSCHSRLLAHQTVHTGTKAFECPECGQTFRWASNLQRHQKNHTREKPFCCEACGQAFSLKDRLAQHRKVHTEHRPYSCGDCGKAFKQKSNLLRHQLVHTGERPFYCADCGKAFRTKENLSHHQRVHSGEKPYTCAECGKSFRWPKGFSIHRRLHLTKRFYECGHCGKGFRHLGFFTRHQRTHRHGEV
On to I277T, for which the “effect of a mutation on the interaction” value is reported as “disrupting interaction strength”.

A further experiment covers variants of B1. Particulars: with bmp7_human BMP7, P18075.
Chain of bmp7_human BMP7, P18075 (P18075 whole entry): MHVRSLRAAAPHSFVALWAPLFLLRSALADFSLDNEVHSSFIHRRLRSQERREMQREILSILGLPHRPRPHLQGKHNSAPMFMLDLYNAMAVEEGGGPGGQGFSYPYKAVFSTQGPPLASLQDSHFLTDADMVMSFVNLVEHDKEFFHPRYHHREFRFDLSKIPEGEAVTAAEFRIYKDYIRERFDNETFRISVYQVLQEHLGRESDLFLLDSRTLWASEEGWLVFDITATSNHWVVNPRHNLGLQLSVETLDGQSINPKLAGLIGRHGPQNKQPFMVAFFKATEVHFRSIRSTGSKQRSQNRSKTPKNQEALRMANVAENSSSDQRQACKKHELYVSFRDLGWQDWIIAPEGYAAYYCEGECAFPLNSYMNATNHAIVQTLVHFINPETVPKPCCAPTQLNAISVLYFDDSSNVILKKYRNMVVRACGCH
On to I277T, for which the “effect of a mutation on the interaction” value is recorded as “disrupting interaction strength”.

The variants in the next experiment derive from B1. Particulars: with zn136_human ZNF136, P52737.
Chain of zn136_human ZNF136, P52737 (P52737 whole entry): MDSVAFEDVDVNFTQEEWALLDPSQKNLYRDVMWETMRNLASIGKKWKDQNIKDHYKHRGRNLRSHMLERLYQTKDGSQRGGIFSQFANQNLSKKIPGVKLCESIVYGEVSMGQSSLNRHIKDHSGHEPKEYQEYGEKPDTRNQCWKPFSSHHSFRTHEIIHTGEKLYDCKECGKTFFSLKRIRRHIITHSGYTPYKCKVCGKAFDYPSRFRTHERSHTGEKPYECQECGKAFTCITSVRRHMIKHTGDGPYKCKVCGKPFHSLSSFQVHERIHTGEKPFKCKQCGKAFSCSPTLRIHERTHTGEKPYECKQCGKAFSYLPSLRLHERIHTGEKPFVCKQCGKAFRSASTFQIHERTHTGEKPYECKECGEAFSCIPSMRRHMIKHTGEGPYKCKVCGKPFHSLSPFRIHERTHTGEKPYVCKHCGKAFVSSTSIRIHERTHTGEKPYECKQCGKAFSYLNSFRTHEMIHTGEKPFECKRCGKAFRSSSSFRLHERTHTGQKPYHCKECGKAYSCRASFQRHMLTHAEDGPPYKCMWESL
On to I277T, for which the “effect of a mutation on the interaction” value is recorded as “disrupting interaction strength”.

The variants in a further experiment derive from B1. Particulars: with cul5_human CUL5, Q93034.
Turning to I277T, the “effect of a mutation on the interaction” value is reported as “disrupting interaction strength”.

A further experiment covers variants of B1. Particulars: with zn555_human ZNF555, Q8NEP9.
Chain of zn555_human ZNF555, Q8NEP9 (Q8NEP9 whole entry): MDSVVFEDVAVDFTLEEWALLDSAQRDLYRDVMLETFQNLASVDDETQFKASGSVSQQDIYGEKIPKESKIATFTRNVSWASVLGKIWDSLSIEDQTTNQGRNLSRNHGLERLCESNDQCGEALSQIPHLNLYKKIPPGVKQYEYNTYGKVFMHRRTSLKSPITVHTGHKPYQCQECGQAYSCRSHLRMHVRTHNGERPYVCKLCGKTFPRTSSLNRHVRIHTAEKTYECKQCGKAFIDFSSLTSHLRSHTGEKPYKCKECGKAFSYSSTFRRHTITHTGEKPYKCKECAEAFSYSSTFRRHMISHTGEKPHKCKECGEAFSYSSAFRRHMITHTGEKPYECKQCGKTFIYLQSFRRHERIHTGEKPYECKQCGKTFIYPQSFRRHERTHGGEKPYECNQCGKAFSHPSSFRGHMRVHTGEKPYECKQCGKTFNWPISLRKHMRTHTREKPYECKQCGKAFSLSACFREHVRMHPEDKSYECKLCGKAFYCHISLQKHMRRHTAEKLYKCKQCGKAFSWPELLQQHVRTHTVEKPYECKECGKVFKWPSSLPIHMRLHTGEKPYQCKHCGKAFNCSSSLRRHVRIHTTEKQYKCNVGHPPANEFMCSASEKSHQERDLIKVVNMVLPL
For the variant I277T, the “effect of a mutation on the interaction” value was “disrupting interaction strength”.

In another experiment the parent is B1. Particulars: with ilf2_human ILF2, Q12905.
Chain of ilf2_human ILF2, Q12905 (Q12905 whole entry): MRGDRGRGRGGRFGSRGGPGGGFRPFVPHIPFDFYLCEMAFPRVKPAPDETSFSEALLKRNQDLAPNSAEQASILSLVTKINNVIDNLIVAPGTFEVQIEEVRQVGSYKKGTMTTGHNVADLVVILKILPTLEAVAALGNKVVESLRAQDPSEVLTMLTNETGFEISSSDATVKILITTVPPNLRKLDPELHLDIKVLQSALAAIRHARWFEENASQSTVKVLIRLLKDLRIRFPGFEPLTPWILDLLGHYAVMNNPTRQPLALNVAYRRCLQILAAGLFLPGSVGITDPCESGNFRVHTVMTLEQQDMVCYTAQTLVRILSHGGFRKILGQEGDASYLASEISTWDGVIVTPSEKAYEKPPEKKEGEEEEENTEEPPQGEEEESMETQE
Take I277T: the “effect of a mutation on the interaction” value is reported as “disrupting interaction strength”.

The variants in the next experiment derive from B1. Particulars: with tnnt1_human TNNT1, P13805.
As for I277T, the “effect of a mutation on the interaction” value is recorded as “disrupting interaction strength”.

The next experiment covers variants of B1. Particulars: with nano2_human NANOS2, P60321.
Chain of nano2_human NANOS2, P60321 (P60321 whole entry): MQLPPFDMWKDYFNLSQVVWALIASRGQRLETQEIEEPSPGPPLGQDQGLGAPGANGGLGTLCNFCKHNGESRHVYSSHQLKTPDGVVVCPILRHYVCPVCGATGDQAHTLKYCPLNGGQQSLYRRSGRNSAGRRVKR
For I277T, the “effect of a mutation on the interaction” value is recorded as “disrupting interaction strength”.

Variants of B1 are the subject of another experiment. Particulars: with tha10_human THAP10, Q9P2Z0.
Chain of tha10_human THAP10, Q9P2Z0 (Q9P2Z0 whole entry): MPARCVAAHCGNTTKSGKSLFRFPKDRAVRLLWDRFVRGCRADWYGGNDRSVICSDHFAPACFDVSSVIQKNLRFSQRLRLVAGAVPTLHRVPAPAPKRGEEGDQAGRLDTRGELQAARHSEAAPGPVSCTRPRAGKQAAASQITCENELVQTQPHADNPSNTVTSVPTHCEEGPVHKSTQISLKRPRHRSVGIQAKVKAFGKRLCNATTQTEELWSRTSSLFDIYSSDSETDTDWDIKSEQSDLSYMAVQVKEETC
Take I277T: the “effect of a mutation on the interaction” value is listed as “disrupting interaction strength”.

The next experiment covers variants of B1. Particulars: with tppc5_human TRAPPC5, Q8IUR0.
For I277T, the “effect of a mutation on the interaction” value is reported as “disrupting interaction strength”.

Variants of B2 are the subject of the next experiment. Particulars: with samd3_human SAMD3, Q8N6K7.
With R9G, the “effect of a mutation on the interaction” value is on record as “with no effect”.
On the same count and under the same terms, with R142K the entry was “disrupting interaction strength”.

In the next experiment the parent is B3. Particulars: with FBP1, P09467.
Chain of FBP1, P09467 (P09467 whole entry): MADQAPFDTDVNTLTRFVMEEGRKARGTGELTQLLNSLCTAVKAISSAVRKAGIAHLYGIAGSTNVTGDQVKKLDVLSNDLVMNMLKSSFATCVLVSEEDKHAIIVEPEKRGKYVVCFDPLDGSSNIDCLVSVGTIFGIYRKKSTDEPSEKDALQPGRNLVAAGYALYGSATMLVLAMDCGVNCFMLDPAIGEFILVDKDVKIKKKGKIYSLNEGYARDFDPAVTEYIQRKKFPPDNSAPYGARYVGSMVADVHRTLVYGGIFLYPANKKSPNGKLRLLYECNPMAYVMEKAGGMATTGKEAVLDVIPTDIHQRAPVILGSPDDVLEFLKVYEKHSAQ
As to V304A, the “effect of a mutation on the interaction” value was “with no effect”.
For the variant R201P, the “effect of a mutation on the interaction” value is recorded as “with no effect”.

The variants in another experiment derive from B3. Particulars: with fhl3_human FHL3, Q13643.
With A182S, the “effect of a mutation on the interaction” value is “with no effect”.

In a further experiment the parent is B4. Particulars: with myog_human MYOG.
As to D157Y, the “effect of a mutation on the interaction” value is recorded as “disrupting interaction strength”.
For the variant V186G, the “effect of a mutation on the interaction” value is given as “with no effect”.

A further experiment covers variants of B5. Particulars: with tri18_human MID1, O15344.
As for R483Q, the “effect of a mutation on the interaction” value is listed as “with no effect”.
S703F: the “effect of a mutation on the interaction” value was “with no effect”.
